Columns and labels:
[1] = tested on: Extra-Cellular Matrix (ECM) of Caco-2 cells; assay: Lactoferrin enrichment at the ECM by immunofluorescent imaging in Caco-2 cells; format: cell-based, human; conditions: varying concentrations, 37° C. for two hours
Experimental: To assess bioactivity of Lactoferrin, particularly for its potential as an antiviral, binding to the ECM was assessed. Purified Lactoferrin was produced according to Example 1. Caco-2 cells, a human-derived cell culture, cells were allowed to grow for three days after plating on a coverslip such that the cells could proliferate, and the ECM could fully develop. Purified Lactoferrin was then added to the cells at varying concentrations at 37° C. for two hours to allow it to bind as theorized. To directly observe the localization of the API we used Immunofluorescent (IF) imaging and stained both the API and E-cadherin, a cell membrane marker.
Primary localization internally was also observed at low concentrations, but given Lactoferrin has known intracellular roles and a receptor allowing for its uptake, fractional localization of Lactoferrin to the intracellular space was expected. To quantify the localization of the API, the absolute intensity of the fluorescent signal both just outside/along the E-cadherin mark as well as inside the cell was measured.

[2] = format: binding; conditions: ITC, Lf 5 mg/mL in 100 mM MOPS buffer pH 7, HS approximately 100 µM
Candida albicans = assay: Biofilm formation, crystal violet assay; format: cell-based; conditions: 24 hours of growth
Streptococcus mutans = assay: Biofilm formation, crystal violet assay; format: cell-based; conditions: 24 hours of growth
Staphylococcus aureus = assay: Biofilm formation, crystal violet assay; format: cell-based; conditions: 24 hours of growth
[3] = DSC iron binding capability with excess FeCl3; conditions: FeCl3 added in 1000× molar excess
Experimental: The DSC assay was further used to assess Lactoferrin bioactivity, specifically the iron binding capability of the API-E2 Lactoferrin. Iron chloride (FeCl3) was added in 1000× molar excess to API-E2 Lactoferrin. In the presence of excess iron, the API-E2 lactoferrin will bind the iron to its open iron binding site.

[4] = tested on: mice with two 10 mm puncture wounds through the skin; assay: Mouse puncture wound model, survival; format: in vivo
Experimental: Lactea Lactoferrin (Lactea-Lf) was produced as described in the above examples and freeze-dried by lyophilization into a powder. Lactea-Lf was then administered as the freeze-dried powder in a variety of animal wound contexts.
In a first assessment in a mouse model setting, mice were anesthetized with isoflurane and two 10 mm puncture wounds were made through the skin of each mouse on the back. Three of the mice were treated with Lf added as a freeze dried powder directly into the wound bed while anesthetized immediately after wounds were made, while the three other mice were left completely untreated. Mice were then transferred to non-sterile housing and observed daily.

Pseudomonas aeruginosa = assay: Biofilm formation, crystal violet assay; format: cell-based; conditions: 24 hours of growth
[5] = tested on: Salivary bacteria (including Lactobacillus, Lactococcus, and Streptococcus mutans); assay: Salivary bacteria acid production, pH over time; format: cell-based; conditions: in the presence of sucrose, entire 6 hour testing period
Experimental: Salivary bacteria (including Lactobacillus, Lactococcus, and Streptococcus mutans) produce acid during growth. This acidification is strongly associated with tooth decay, particularly when it results in pH below 5.5, which is a clinically relevant threshold. A slurry of these bacteria were treated with sucrose to stimulate growth, as well as varying concentrations of API-E2 lactoferrin. Upon the addition of sucrose and API-E2 lactoferrin, the pH was adjusted to 7 through a titration and the change in pH was subsequently monitored over the next 6 hours.

[6] = tested on: Staphylococcus epidermidis; assay: Biofilm formation, crystal violet assay; format: cell-based; conditions: 24 hours of growth
E. coli = assay: Zone of inhibition test; format: cell-based
Experimental: A zone of inhibition test was performed to assess bioactivity of API-E2 Lactoferrin. A plate with E. coli was cultured with 100 µg/mL, 10 g/mL, 1 g/mL, and 0.1 g/mL API-E2 Lactoferrin added to paper circles and allowed to diffuse out.

[7] = tested on: Staphylococcus epidermidis; assay: Planktonic growth in culture, OD600; format: cell-based; conditions: 10-fold serial dilution of Lf, 18 hours
[8] = ITC-based assay, binding to LPS
[9] = tested on: ECM of primary buccal cells; assay: ECM association by immunofluorescence in primary buccal cells; format: cell-based; conditions: 100 µg/mL for 1 hr at 37 C
Experimental: Primary buccal cells were next cultured according to a standard protocol (e.g., see Russo et al. Cytotechnology. 2016 October; 68(5): 2105-2114; herein incorporated by reference for all purposes). […] Immunofluorescence imaging was performed as previously described.

Enterobacter cloacae = assay: Biofilm formation, crystal violet assay; format: cell-based; conditions: 24 hours of growth
[10] = tested on: salivary human bacteria (including Lactobacillus, Lactococcus, Streptococcus mutans, and Porphyromonas gingivalis); assay: Poultry surface treatment, chicken breast inoculated with salivary bacteria; conditions: 3 mg/mL surface treatment, 6 days at 37° C.
Experimental: Chicken breasts were inoculated with salivary human bacteria in a slurry as described above in pH testing (including Lactobacillus, Lactococcus, Streptococcus mutans, and Porphyromonas gingivalis) and left for 6 days at 37° C.

SARS-CoV-2 = SARS-CoV-2 Cytopathic Effect (CPE) reduction assay in Vero E6 cells; format: cell-based; conditions: Vero E6 cells, MOI of 0.001, neutral red, three days post-infection

B1: Lactea-Lf: bovine lactoferrin purified from raw untreated milk by cation exchange chromatography and filtration according to Example 1 (protein)
chain: APRKNVRWCTISQPEWFKCRRWQWRMKKLGAPSITCVRRAFALECIRAIAEKKADAVTLDGGMVFEAGRDPYKLRPVAAEIYGTKESPQTHYYAVAVVKKGSNFQLDQLQGRKSCHTGLGRSAGWVIPMGILRPYLSWTESLEPLQGAVAKFFSASCVPCIDRQAYPNLCQLCKGEGENQCACSSREPYFGYSGAFKCLQDGAGDVAFVKETTVFENLPEKADRDQYELLCLNNSRAPVDAFKECHLAQVPSHAVVARSVDGKEDLIWKLLSKAQEKFGKNKSRSFQLFGSPPGQRDLLFKDSALGFLRIPSKVDSALYLGSRYLTTLKNLRETAEEVKARYTRVVWCAVGPEEQKKCQQWSQQSGQNVTCATASTTDDCIVLVLKGEADALNLDGGYIYTAGKCGLVPVLAENRKTSKYSSLDCVLRPTEGYLAVAVVKKANEGLTWNSLKDKKSCHTAVDRTAGWNIPMGLIVNQTGSCAFDEFFSQSCAPGRDPKSRLCALCAGDDQGLDKCVPNSKEKYYGYTGAFRCLAEDVGDVAFVKNDTVWENTNGESTADWAKNLNREDFRLLCLDGTRKPVTEAQSCHLAVAPNHAVVSRSDRAAHVKQVLLHQQALFGKNGKNCPDKFCLFKSETKNLLFNDNTECLAKLGGRPTYEEYLGTEYVTAIANLKKCSTSPLLEACAFLTR
Lactoferrin localization at the ECM (IF imaging) [1]: enrichment at the ECM was observed as concentration increased
binding to Heparan Sulfate [2]: far greater binding to Heparan Sulfate than the research standard
Inhibition of Biofilm Formation (Candida albicans): Strong (Lf was deemed to have a strong activity if biofilms were eliminated or significantly reduced to less than 90% less than no treatment at concentrations of 10 mg/mL or less after 24 hours of growth)
Inhibition of Biofilm Formation (Streptococcus mutans): Strong (Lf was deemed to have a strong activity if biofilms were eliminated or significantly reduced to less than 90% less than no treatment at concentrations of 10 mg/mL or less after 24 hours of growth)
Inhibition of Biofilm Formation (Staphylococcus aureus): Strong (Lf was deemed to have a strong activity if biofilms were eliminated or significantly reduced to less than 90% less than no treatment at concentrations of 10 mg/mL or less after 24 hours of growth)
available Apolactoferrin shifted to the Hololactoferrin form [3]: 100%
survival of mice following wounding ([4]; freeze dried powder directly into the wound bed, non-sterile housing, study to day 28, all three untreated mice died by day 12): only one mouse died at day 14 and the other two survived to the conclusion of the study at day 28
toxicity of powder administered to wounds ([4]; mice, freeze-dried powder of pure Lf administered to the wounds): no toxicity was observed
Inhibition of Biofilm Formation (Pseudomonas aeruginosa): Strong (Lf was deemed to have a strong activity if biofilms were eliminated or significantly reduced to less than 90% less than no treatment at concentrations of 10 mg/mL or less after 24 hours of growth)
pH of salivary bacteria slurry ([5]; 1 mg/mL): above 5.5
pH of salivary bacteria slurry ([5]; 10 mg/mL): above 5.5
Inhibition of Biofilm Formation [6]: Strong (Lf was deemed to have a strong activity if biofilms were eliminated or significantly reduced to less than 90% less than no treatment at concentrations of 10 mg/mL or less after 24 hours of growth)
zone of inhibition (E. coli; 10 µg/mL on paper circles): complete inhibition
zone of inhibition (E. coli; 100 µg/mL on paper circles): complete inhibition
zone of inhibition (E. coli; 0.1 g/mL on paper circles): No zone of inhibition
zone of inhibition (E. coli; 1 g/mL on paper circles): limited zone of inhibition
Inhibition of Planktonic Growth [7]: None
binding to LPS [8]: binds to LPS
competition of LPS binding with HS binding [8]: competitive with HS binding
ECM association of Lactoferrin (immunofluorescence imaging) [9]: strong binding along the ECM
Inhibition of Biofilm Formation (Enterobacter cloacae): Strong (Lf was deemed to have a strong activity if biofilms were eliminated or significantly reduced to less than 90% less than no treatment at concentrations of 10 mg/mL or less after 24 hours of growth)
bacterial growth on chicken breast [10]: no detectable growth of any bacteria colonies
EC50 (SARS-CoV-2): 90 nM
